# Data published in the DeepSol protein solubility set.
# Test: soluble on expression in E. coli; label from the status in PepcDB or PDB records
row,Sequence,soluble on expression in E. coli
1,MDDDFLPRRLKYSKHSLMLVALDYIPKELHKCLDMDRLEDVSAGGAYTTKQMLEEILNSDSRFRIYGNAEVFEKLLEKYMNFTSCREKFGFEKLQVLCVPIPMSPNLKGEKYLTKQDMFEHVQFYLMDVFHHTGFPFDNVVISLAFIKFRADRLNGCMEFVSNAREVLNSIESEIDQFLDELLDILNAEYFPKNYALPSKNPSFDTLYKQWKSFFPDWKPDELDSIQRFLEDRYSHLPPHKNAEKYGGILFVNHYLTNKYRELIDSRPEVFLPYNAMNRHKAPITVRVILFKDTKLVLRGELYKAMNQAYPDRVPIDYTDDLEEGIIYAMNFEDVFKEFGDLWYDIEFILTKVTRTNNATPILTLSGEFCIPGLQAFYNIFHVMNNVLRLFQKVKKEMWHFVCGYVKILEVRLKPFEDTPCFITNTALETIIQELCEYWRMFENAPFKDIRTVKGATFTADDLKNELSHIGVLDIFPELGELVDTGYQAILEVKQNADNLKTWDLMDYLESTLIFCFSSRFEFLNNLLEIQEGIHPKNENLANIFLGITSKPENLLPYLIDKSRYQDVLPTVPLERHRVRVTYNFSIDDETISEPTPVPQQLEKKTENCSECNDVRMEMNTVKDVLQNVQKQLKNMQQNSEQFETKLVASDNKTKNFEKQLEDERRKNNKHLESSRKTLISKNEQLEALKRRATALSNCQAENQTLKFKIAEHHLLEKQLNISNKDVTQARDQLSGQISELEIQLKSELKTVQHLKKEQTISCNLTNEITKLKDQIEREKLCSKQLEKEISQLRTEADEMNIVMTQSLEMENLQLRDATKKFETENASLLKTNQQLSIQNEEQKRLIQVLLEKQQTAPSSSDFPVPSTQMTDNEENSRQQLWKYQKIKDSFRDGIKLRKAEAMVKKLTSLNRDPGVHQMAHRELENFKKLTSHYLQAIEMNILKIKNNGSSDLEQLPEAPKFSDEFMRFYRNATGKQTLTSASFSSGNSRGTQSYGSSISTMPSTSSRGNVQHHSGSAVRGQSITPTGLSQVPMSPRKLFSQPNIVTASITSTELDDTECAICLDEMTNFKETIKCQCRRRFHLECATKWLNEKRECPTCRKLLLNPSDYPPLN,not soluble
2,MDDPASYELDPSIAQRVKFNSAGLVPAVVQSTDGEVLMLAWMDAHALAYTIATRKGTYFSRSRNEYWIKGLTSGHTQQVTGLQLDCDGDTVLMTVVQQGGACHTGDRTCFDADVII,not soluble
3,MDDREGSFVAVRRISQGLERGSVYNSSSAEAVPGSAAWLGRGLSCVCAQRRDSDANSTFDLTPAQEECLQSLQNRIDVAYDSTIPLHQEALRELWKLSFPEEELHGLISEQWKEMGWQGKDPSTDFRGGGFISLENLLYFARNFQKSFQDLLRKQVGDRSVWEYPFAVAGINLTFMLIQMLDLEAVKPRTIVGATFLKFLSENESAFDLLYCIAFKLMDQQWLSMRASYMEFNTVMKSTRRQLERELMLEDIMHLEDLPSYALLNQ,not soluble
4,MDDSDDEYSRSHGETLTFVDPEDDGVSIGNTQDSQFAYEQFSVPTQSSQATDLLPGGTDGTTNDLPFHDVEDDESDSEKSLTEEQQQQKLPEHACRYCGISDPLCVAKCTVCRKWFCNSNDGTSGGHIVHHMVRSQHKEAYTHKDSPCGDTQLECYRCGSKNVFNLGFIPGKKDQVVVIICRTPCASIAFQNDDNWSPEDWKSVIAEKQLLSWIVNVPSEEQVARARKITATQAVRMEELWRDHPEATVDDLNKPGLDREPDHVQLRYVDAHHYSKVFRPLVAIEAEYDRRVKESASQAVGTVRWEQGLRQSVLAFFHLPQFADGVMKLAKGDELRLKHSQTVDGSEWTKIGSVFKIPDNHGDEVGIEIRGAVDKSVMESRIMFTVDVVWNATTFERQYKALAALLNDSKAISPYLYQKLLGHPAEEMMLKFDLPRRLSVAGLPELNSSQMQAVKQVLTRPLSLIQGPPGTGKTVVSATIVYHLVQKTEGNVLVCSPSNIAVDHLAEKIHKTGLKVVRLCARSREHSETTVPYLTLQHQLKVMGGAELQKLIQLKDEAGELEFKDDLRYMQLKRVKEHELLAAADVICCTCSSAADARLSKIRTRTVLIDESTQATEPEILVSIMRGVRQLVLVGDHCQLGPVVICKKAAIAGLSQSLFERLVLLGIRPFRLQVQYRMHPVLSEFPSNVFYDGSLQNGVTENDRHMTGVDWHWPKPNKPAFFWHCSGSEELSASGTSFLNRTEAANVEKLVSKLIKAGVQPHQIGVITPYEGQRSFIVNYMHTQGTLNSKLYENVEIASVDAFQGREKDYIIVTCVRSNDILGIGFLSDPRRLNVAITRAKYGLVLVGNAKVLARHDLWHELINHYKSKEMLYEGPINALKPLNLALPKATIRTKNNIAGNANRFGIKRMQYTFNEYKSNDPSQPRLPPTYSNSQNLLSMSKLAQTFNKNVPIPAHMMDPNVYAAARNQKDRRRGDQRRPPPQAEAAMDLSQGMMSQQSQQYPPQGASSQSQYLLDGASSLSGWSQSQTTTTTTRHHHHRQNRNSQQQMSQDMDDIQQKMDDLLFSQDC,not soluble
5,MDEEEEISVVQDMAYDYSGKRLATVSIDREICIWNKKDDWQRTYQWKAHEGPLFGVSWAHPCFGNILATGSYDKRVIIWEEPEASSSYSSSSMDKSTKGWTALAHLVDARDEVRQVQFAPPHLGLLLASGSADGYVRIYTCIDEADLHQWPLLTELDMDSPVVGMSWNPSVDSIPLIVVASHKDCRVWSMDNDTRRWTDWHLFRTSESDTADLSAVAWAPHVGRSFERIALGCEDGSILLFQFPRIQQGNKTNGHEMQPICRLNHGNERIVRLQWNMVGSILASSASDRMVRLWKALPQDGTRWNCFDVVHLNE,not soluble
6,MDEHFIKIHKWLYPVSWIYGAVVTVRNKLFDWGFLRSKSFGVPVICIGNLSVGGTGKTPHTEYLIKLLRDNYHVAVLSRGYKRHSRGYVLATPQSTARSIGDEPYQMHTKFPSVTLAVDENRCHGIEQLLSIKEPSIEVVLLDDAFQHRYVKPGLSILLTDYHRLFCDDTLLPAGRLRESVNGKNRAQIVIVTKCPQDIKPIDYNIITKRLNLYPYQQLYFSSFRYGNLQPVFPSANSEIDSTVNELPLSALTNTDILLVTGIASPAPILEELKMYTDQIDSLSFDDHHHFSHRDIQQIKERFGKLKGEHKLIVTTEKDATRLIHHPVLSEELKPFIYALPIEIEILQNQQDKFNQHIIGYVRENTRNSSFSERENAHQSLEHHHHHH,soluble
7,MDELNRGHAGRTVIRNIEAACEMDPEKRVVISKTDQGSEANMPGHWTGCARPTRDPFVPFVAGRGESVAVRYNSRFGRRFDDQSVNGQPDPSLAYVFLGHELIHASRTLQGTQYRVSRGRPDVDEDSGAAEEELRTVGIGQYEDEYPSENAIRREHGLAPRTSYSGNTGTNLREPPERNSQYTEARLRSLNARRWSDM,not soluble
8,MDELNSPLGERAQGASLAHVVWSDPQWLERYPLTFENVLTYFSRSPFYDPTCNNELVRMQMHPELQGEMLYYTQREEELLLGMQGVEYVPLCSSDAHELFIIRKQVRRSADEVHVTNLYYILYGQVYEAPAFSTVLLVRLRQSADFLVRSLGLLRQWLSKKEYGEPGATGHGHEDTLLLQLLRKAQQRNRQL,not soluble
9,MDEVDVALIGAGIMSATLGAMLRTLEPGWTQVMFERLDAPAQESSSPWNNAGTGHSALCELNYTPEVKGRVQIDKALGVNEKFQISRQFWSYQVNEGVLPSPREWINPVPHVSFGRGEDQVAYLKKRYEALAAHPLFPNMQYTDDRAKFAEMLPLMADGRSEFEKVAISWTDAGTDINYGSQTRQFLKAAEKNGTEIRYGHEVKDIKRDGAKWRVTVKNVHTGDTQVIRANFVFVGAGGMALPLLQKTGLEHHHHHH,soluble
10,MDFECQFVCELKELAPVPALLIRTQTTMSELGSLFEAGYHDILQLLAGQGKSPSGPPFARYFGMSAGTFEVEFGFPVEGGVEGSGRVVTGLTPSGKAASSLYIGPYGEIEAVYDALMKWVDDNGFDLSGEAYEIYLDNPAETAPDQLRTRVSLMLHESLEHHHHHH,soluble
11,MDFGKTNSKLFVFGQDGGILDERRTQPKWTHQDGFSVLDEAALHDWALGAVTEAVENHGVEGVMVSGHGCTFALVDDAALTHPILDYEQEPPAEIAARIDHRIPDFAETFSPRLPLGFNYGRHMLWVQEVDPDAFAAAKSILGYPQYWSWRLGGRPVSEVSYLGCHSHLWAPRSQDFSSLVDAEGWRGQMPAFARAGAVIGERRLGSSSRPIAIHNGVHDSNAALHAYRRQELGLEHHHHHH,soluble
